Numbering of substitutions follows the chain as printed. Names may count otherwise.
Key:
[1] = target: SIRPγ-his (Sino Biological, Cat #11828-H08H) (UniProt Q9P1W8 29-360); test: BLI (Octet RED 96), His-tagged antigen on Ni-NTA sensor, antibody in solution
Protocol: (§1) SIRPα V1-his (ACRO, Cat #SIA-H5225), SIRPα V2-his (made by transient transfection of HEK293F cells according to SEQ ID NO:38 sequence), SIRPβ-his (Novoprotein, Cat #CS93), SIRPγ-his (Sino Biological, Cat #11828-H08H) or cynomolgus macaques SIRPα-his (ACRO, Cat #SIA-C52H7) at 5 μg/mL was loaded to a Ni-NTA biosensor for 600 s. […] The data were fitted to calculate the affinity.

[2] = target: T1, cynomolgus macaques SIRPα-his (ACRO, Cat #SIA-C52H7) (cynomolgus macaque, UniProt A0A2K5VYQ9 31-369); test: as above
T1 construct: also called Monkey SIRPα; cynomolgus macaque SIRPα
T1 sequence: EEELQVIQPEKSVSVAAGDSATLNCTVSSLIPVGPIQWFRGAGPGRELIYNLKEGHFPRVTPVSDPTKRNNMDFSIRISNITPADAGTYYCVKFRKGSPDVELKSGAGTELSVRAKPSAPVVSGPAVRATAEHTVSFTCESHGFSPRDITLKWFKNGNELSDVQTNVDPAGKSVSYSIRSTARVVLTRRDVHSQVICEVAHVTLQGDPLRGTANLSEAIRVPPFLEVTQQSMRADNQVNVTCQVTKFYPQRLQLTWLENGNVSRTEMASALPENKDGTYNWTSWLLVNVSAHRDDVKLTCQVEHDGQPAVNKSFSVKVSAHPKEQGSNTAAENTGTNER
Protocol: as §1

[3] = target: T2, SIRPα V1-his (ACRO, Cat #SIA-H5225) (human, UniProt P78324 31-370); test: as above
T2 construct: not shown: His tag
Protocol: as §1

[4] = target: T3, SIRPβ-his (Novoprotein, Cat #CS93) (UniProt O00241 30-371, limits assumed); test: as above
Protocol: as §1

[5] = target: T4, SIRPα-V2 on CHOZN-SIRPα-V2 cells (Homo sapiens (Human), UniProt P78324 31-504); test: FACS titration on CHOZN-SIRPα-V2 cells, goat anti-hIgG Fc-AF488 (panel SIRPα-V2)
Protocol: (§2) After washing, cells were stained with 0.2 μg goat anti-hIgG Fc-AF488 (Jackson ImmunoResearch, Cat #109-546-170) at 4° C. for 30 min. After washing again, cells were resuspended in 50 μL of DPBS/1% FBS and analyzed by FlowJo V10 and GraphPad Prism6 software.

[6] = target: T5, SIRPα-V1 on 293T-SIRPα-V1 cells (human, UniProt P78324 31-504); test: competition FACS; 293T-SIRPα-V1 cells, FITC-labelled CD47 as competitor
T5 construct: Stably transfected cell line
Protocol: (§3) After washing, cells were analyzed by FlowJo V10 and GraphPad Prism6 software.

[7] = target: T6, SIRPα-V8 on stably transfected cells (Homo sapiens (Human), UniProt P78324 31-504); test: FACS titration on CHOZN-SIRPα-V8 cells, goat anti-hIgG-AF488 (panel SIRPα-V8)
T6 construct: also called CHOZN-SIRPα-V8; 293T-SIRPα-V8
Protocol: (§4) 2×10⁵ per well of stable transfer construct cell lines 293T-SIRPα-V1 (SEQ ID NO: 2), CHOZN-SIRPα-V2 (SEQ ID NO: 38), and CHOZN-SIRPα-V8 (SEQ ID NO: 39) in logarithmic phase were dispended in 96-well U-shaped culture plates, […] After washing, the cells were incubated with 0.2 μg of goat anti-hIgG-AF488 for 30 min at 4° C., then resuspended in 50 μL of DPBS/1% FBS and analyzed by flow cytometry with FlowJo V10 and GraphPad Prism6 software.

[8] = target: T2, SIRPα V1-his (ACRO, Cat #SIA-H5225); test: SPR (Biacore), antibody captured by anti-Fc on CM5, 50 nM SIRPα V1-his injected, 1:1 model
Protocol: (§5) Using the Biacore analysis system, activators were prepared by mixing 400 mM EDC and 100 mM NHS and activated with a CM5 sensor chip at a flow rate of 10 μL/min for 420 s. Anti-Fc antibody at 30 μg/mL dissolved in 10 mM NaAc (pH 4.5) was injected into the channel at a flow rate of 10 μL/min and then closed with 1 M ethanolamine-HCl at a flow rate of 10 μL/min for 420 s. […] All experimental data were fitted using a 1:1 binding model.

[9] = target: T2, SIRPα V1-his (ACRO, Cat #SIA-H5225); test: ELISA
[10] = target: T3, SIRPβ-his (Novoprotein, Cat #CS93); test: ELISA
[11] = target: T5, SIRPα-V1 on 293T-SIRPα-V1 cells; test: FACS on cells carrying the target
Protocol: as §2

[12] = target: T4, SIRPα-V2 on CHOZN-SIRPα-V2 cells; test: FACS on cells carrying the target
Protocol: as §2

[13] = target: T6, SIRPα-V8 on stably transfected cells; test: FACS on cells carrying the target
Protocol: as §2

[14] = target: T2, SIRPα V1-his (ACRO, Cat #SIA-H5225); test: competition ELISA; coated SIRPα-V1-his, biotin-CD47 as competitor
Protocol: 100 μL of 2.5 μg/mL of recombinant SIRPα-V1-his and SIRPα-V2-his were coated overnight at 4° C. in Maxisorp ELISA 96-well plates. […] […] VSWFSP (SEQ ID NO: 40)] and incubated in the microtiter plate for 1 h at 37° C. After washing, each well was added with Streptavdin-HRP (Thermo, Cat #434323), substrate TMB (Beyotime, Cat #P0209-100 mL), and read by an enzyme marker.

[15] = target: T4, SIRPα-V2 on CHOZN-SIRPα-V2 cells; test: competition FACS; CHOZN-SIRPα-V2 cells, FITC-labelled CD47 as competitor
Protocol: as §3

[16] = target: T5, SIRPα-V1 on 293T-SIRPα-V1 cells; test: FACS titration on 293T-SIRPα-V1 cells, goat anti-hIgG-AF488 (panel SIRPα-V1)
Protocol: as §4

[17] = target: T2, SIRPα V1-his (ACRO, Cat #SIA-H5225); test: SPR (Biacore), antibody captured by anti-Fc on CM5, 50 nM SIRPα V1-his injected
Protocol: as §5

[18] = target: T7, SIRPα V2-his (made by transient transfection of HEK293F cells according to SEQ ID NO:38) (Homo sapiens (Human), UniProt P78324 31-373); test: BLI (Octet RED 96), His-tagged antigen on Ni-NTA sensor, antibody in solution
T7 construct: it is the full-length precursor, starting with MEPAG... and including the transmembrane and cytoplasmic parts; not shown: His tag
Protocol: as §1

[19] = target: T2, SIRPα V1-his (ACRO, Cat #SIA-H5225); test: competition ELISA: coated SIRPα-V1-his, antibody titrated against biotin-CD47, streptavidin-HRP (panel SIRPα-V1-CD47)
[20] = target: T7, SIRPα V2-his (made by transient …); test: competition ELISA: coated SIRPα-V2-his, antibody titrated against biotin-CD47, streptavidin-HRP (panel SIRPα-V2-CD47)

T4 sequence (P78324 other isoform, or with tags, fused parts or gaps limits assumed): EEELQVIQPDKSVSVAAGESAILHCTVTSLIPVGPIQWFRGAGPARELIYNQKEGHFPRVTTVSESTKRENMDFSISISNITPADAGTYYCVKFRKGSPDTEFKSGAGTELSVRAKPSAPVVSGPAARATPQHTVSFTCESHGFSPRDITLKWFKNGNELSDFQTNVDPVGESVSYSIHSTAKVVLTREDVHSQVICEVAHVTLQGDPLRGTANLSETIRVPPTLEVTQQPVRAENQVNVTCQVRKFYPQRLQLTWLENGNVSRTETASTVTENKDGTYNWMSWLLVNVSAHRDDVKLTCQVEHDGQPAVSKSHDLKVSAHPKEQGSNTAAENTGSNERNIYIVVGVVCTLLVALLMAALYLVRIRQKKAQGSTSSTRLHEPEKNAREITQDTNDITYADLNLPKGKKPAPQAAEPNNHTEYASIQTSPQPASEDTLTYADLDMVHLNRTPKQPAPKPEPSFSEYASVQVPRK
T7 sequence (P78324 other isoform, or with tags, fused parts or gaps limits assumed): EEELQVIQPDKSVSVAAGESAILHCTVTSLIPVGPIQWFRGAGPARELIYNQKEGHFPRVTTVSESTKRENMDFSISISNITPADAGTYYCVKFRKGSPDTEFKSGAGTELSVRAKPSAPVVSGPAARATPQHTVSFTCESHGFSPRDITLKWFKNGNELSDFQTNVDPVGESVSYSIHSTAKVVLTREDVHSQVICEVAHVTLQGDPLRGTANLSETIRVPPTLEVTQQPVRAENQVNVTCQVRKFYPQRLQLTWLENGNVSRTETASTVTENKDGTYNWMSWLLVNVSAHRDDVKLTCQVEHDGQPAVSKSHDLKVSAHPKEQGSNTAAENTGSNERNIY
T2 sequence (P78324 31-370 limits assumed): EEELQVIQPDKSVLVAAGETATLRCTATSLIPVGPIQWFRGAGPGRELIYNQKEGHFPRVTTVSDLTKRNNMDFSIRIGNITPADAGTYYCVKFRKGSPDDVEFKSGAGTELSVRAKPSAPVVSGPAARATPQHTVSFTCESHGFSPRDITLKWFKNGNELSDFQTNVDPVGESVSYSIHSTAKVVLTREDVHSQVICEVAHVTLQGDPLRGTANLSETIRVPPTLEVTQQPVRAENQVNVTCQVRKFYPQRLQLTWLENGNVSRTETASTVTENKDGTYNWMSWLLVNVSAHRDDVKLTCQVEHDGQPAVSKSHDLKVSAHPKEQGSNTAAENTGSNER
T6 sequence (P78324 other isoform, or with tags, fused parts or gaps limits assumed): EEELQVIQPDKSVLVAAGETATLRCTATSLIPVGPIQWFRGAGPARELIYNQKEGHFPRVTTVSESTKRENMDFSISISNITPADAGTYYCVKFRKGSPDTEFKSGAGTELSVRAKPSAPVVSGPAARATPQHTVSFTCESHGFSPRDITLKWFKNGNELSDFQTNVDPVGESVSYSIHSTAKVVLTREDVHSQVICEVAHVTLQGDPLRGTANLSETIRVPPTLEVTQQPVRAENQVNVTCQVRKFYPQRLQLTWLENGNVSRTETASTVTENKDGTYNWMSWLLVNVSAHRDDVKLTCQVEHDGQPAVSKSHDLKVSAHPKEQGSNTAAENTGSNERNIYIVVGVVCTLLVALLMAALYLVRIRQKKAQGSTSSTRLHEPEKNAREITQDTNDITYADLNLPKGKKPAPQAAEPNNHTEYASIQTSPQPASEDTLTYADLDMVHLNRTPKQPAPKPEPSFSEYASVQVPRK
T5 sequence (P78324 31-504): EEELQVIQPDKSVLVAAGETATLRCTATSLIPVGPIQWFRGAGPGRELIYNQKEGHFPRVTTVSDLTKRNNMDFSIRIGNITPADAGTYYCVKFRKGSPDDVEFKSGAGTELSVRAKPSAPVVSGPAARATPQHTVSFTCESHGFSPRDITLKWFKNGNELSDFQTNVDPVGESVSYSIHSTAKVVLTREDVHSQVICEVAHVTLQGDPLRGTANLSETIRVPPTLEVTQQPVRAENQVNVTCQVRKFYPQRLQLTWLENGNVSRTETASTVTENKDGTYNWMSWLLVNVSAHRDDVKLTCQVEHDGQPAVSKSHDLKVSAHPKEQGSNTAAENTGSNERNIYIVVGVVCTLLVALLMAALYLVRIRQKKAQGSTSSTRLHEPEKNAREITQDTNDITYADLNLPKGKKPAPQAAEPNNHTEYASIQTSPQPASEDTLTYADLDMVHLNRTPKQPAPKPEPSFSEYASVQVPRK
T3 sequence (O00241 30-371 limits assumed): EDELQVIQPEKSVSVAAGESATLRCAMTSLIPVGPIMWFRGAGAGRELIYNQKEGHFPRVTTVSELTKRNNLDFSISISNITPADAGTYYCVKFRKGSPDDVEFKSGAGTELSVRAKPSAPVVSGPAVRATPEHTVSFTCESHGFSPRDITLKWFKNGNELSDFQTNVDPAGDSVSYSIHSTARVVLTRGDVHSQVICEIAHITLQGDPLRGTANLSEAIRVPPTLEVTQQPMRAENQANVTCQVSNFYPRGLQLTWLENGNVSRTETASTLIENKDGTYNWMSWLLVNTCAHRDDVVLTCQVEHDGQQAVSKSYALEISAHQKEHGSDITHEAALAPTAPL
Sequence of SIRPγ-his (Sino Biological, Cat #11828-H08H) (Q9P1W8 29-360 limits assumed): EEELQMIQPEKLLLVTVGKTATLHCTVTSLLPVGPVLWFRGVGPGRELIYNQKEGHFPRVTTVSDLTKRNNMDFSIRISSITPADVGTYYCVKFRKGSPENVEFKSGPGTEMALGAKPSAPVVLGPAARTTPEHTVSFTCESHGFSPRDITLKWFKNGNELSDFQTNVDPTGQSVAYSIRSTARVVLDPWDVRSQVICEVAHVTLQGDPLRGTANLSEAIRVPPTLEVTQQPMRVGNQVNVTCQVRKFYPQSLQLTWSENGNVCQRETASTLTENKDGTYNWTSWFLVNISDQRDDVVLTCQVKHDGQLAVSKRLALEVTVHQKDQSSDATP

B1: AD4-12 (antibody, V domains shown)
VH: EVQLEESGPGLVAPSQSLSITCTVSGFSLTGYGVNWVRQPPGKGLEWLGIIWGDGSTDYNSALKSRLSISKDNSKSQVFLKMNSLQSDDTARYYCARAGKMDYWGQGTSVTVSS
VL: DIVLTQSPASLAVSLGQGATISCRASESVDSYGNSFMHWYQQKPGQPPKPLIYLASNLESGVPARFSGSGSRTDFTLTIDPVEADDAATYYCQQNNEYPWTFGGGTKLEIK
notes: Mouse variable domains joined to human kappa and human IgG1 constant regions (wild type = AD4-12-G1, L234A/L235A = AD4-12-G1lala); also called AD4-12-G1; AD4-12-G1lala
Kd [1]: 1.03 nM | koff [1]: 0.000731 s⁻¹ | kon [1]: 709000 M⁻¹ s⁻¹ | Kd [2]: 0.43 nM | koff [2]: 0.000498 s⁻¹ | kon [2]: 1.16e+06 M⁻¹ s⁻¹ | Kd [3]: 0.0111 nM | koff [3]: 1.16e-05 s⁻¹ | kon [3]: 1.05e+06 M⁻¹ s⁻¹ | Kd [4]: 0.0353 nM | koff [4]: 3.21e-05 s⁻¹ | kon [4]: 909000 M⁻¹ s⁻¹ | EC50 (read off the curve) [5]: ~4 nM | IC50 [6]: 1.74 nM | EC50 (read off the curve) [7]: ~2 nM | Kd [8]: 1.47 nM | koff [8]: 0.00113 s⁻¹ | kon [8]: 770000 M⁻¹ s⁻¹ | EC50 [9]: 0.0488 nM | EC50 [10]: 0.271 nM | EC50 [11]: 0.615 nM | EC50 [12]: 0.245 nM | EC50 [13]: 0.407 nM | IC50 [14]: 5.26 nM | IC50 [15]: 6.42 nM | EC50 (read off the curve) [16]: ~5 nM

B2: Z2 (antibody, IgG1, V domains shown)
VH: QVQLQESGPGLVKPSQTLSLTCTVSGFSLTGYGVNWIRQPPGKGLEWIGIIWGDGSTDYNSALKSRVTISVDTSKNQVFLKLSSVTAADTAVYYCARAGKMDYWGQGTTVTVSS
VL: B1 VL with L15P, G18R, S22T, P50L, D80N, D85N, T89N, L108V
notes: also called humanized variant Z2
binding result [17]: binds

B3: 18D5 (antibody, V domains shown)
VH: QVQLQQPGAELVRPGSSVKLSCKASGYTFTSYWVHWVKQRPIQGLEWIGNIDPSDSDTHYNQKFKDKASLTVDKSSSTAYMQLSSLTFEDSAVYYCVRGGTGTMAWFAYWGQGTLVTVSA
VL: DVVMTQTPLSLPVSLGDQASISCRSSQSLVHSYGNTYLYWYLQKPGQSPKLLIYRVSNRFSGVPDRFSGSGSGTDFTLKISRVEAEDLGVYFCFQGTHVPYTFGSGTKLEIK
Kd [18]: 1.07 nM | koff [18]: 0.000601 s⁻¹ | kon [18]: 561000 M⁻¹ s⁻¹ | Kd [1]: 1.23 nM | koff [1]: 0.000896 s⁻¹ | kon [1]: 728000 M⁻¹ s⁻¹ | Kd [3]: 0.115 nM | koff [3]: 7.76e-05 s⁻¹ | kon [3]: 674000 M⁻¹ s⁻¹ | Kd [4]: 0.0137 nM | koff [4]: 2.36e-05 s⁻¹ | kon [4]: 1.72e+06 M⁻¹ s⁻¹ | EC50 [9]: 0.13 nM | EC50 [10]: 0.196 nM | EC50 [11]: 1.08 nM | EC50 [12]: 3.65 nM | EC50 [13]: 8.76 nM | IC50 (read off the curve) [19]: ~20 nM | IC50 (read off the curve) [20]: ~30 nM
